Measurements: a protein production outcome set (Wang et al. 2014)

Experiment: label from the status in PepcDB records

MRETSNPVFRSLPKQRGGYAQFGTGTAQQGFPADPYLAPYREAKATRPLTIDDVVTKTGLTLAMLAGTAVVSYFLVASNVALAMPLTLVGALGGLALVLVATFGRKQDNPAIVLSYAALEGLFLGAISFVLANFTVASANAGVLIGEAILGTMGVFFGMLVVYKTGAIRVTPKFTRMVVAALFGVLVLMLGNLVLAMFNVGGGEGLGLRSPGPLGIIFSLVCIGIAAFSFLIDFDAADQMIRAGAPEKAAWGVALGLTVTLVWLYIEILRLLSYLQNE
protein production: failed

MIVSVVIPVAKEGNTLYERIHLINKHFNSLSSSHKFSYEIILVSDIFHKPTLKAMIRLAKENVAKCLLLTQRIGKGGSIKNAIPFSRGDYIVILDADIPVRPIFINQAVVLAMNLGIDLIIANRVYRTHSLLRRVLSVAYNSLVNLLFKTGLRDHQAGLKILSRRAAKIILMKRTRTDGLAYDTEIVVWAKRHGLRYRAVNVVWREQREGSTIPPMRALLTMLADLIMLRLLTLAGKYVALQKLVIGRVIDLGNIHTVGQEFMTVIRASRPKNHLLNVLRKLYIAVALRR
protein production: failed

MFGMTLVNIFVPKLNLYHFVVGVIYLFPMIVIGFKIVKNRNITGLPLFICSGIVGVWAILLHMKMNLGHDYEFFSGPIQETVMLILLLVAVPLSYYVFACSVGCKDTRNMKALKIFPVVAFFIIVITEILGISYYGMANYVLLFSFLLLIGPLLGGLYIWEIMSNIQFKNYTT
protein production: failed

MSLSGTLIGAAAGGTVGLVASIYRDSKRKIIRDLQKQDIQYVEYGDTRTLIIPTDKYFMFSSPRLNEICYPGLNNVIRLLNFYPQSTIYVAGFTDNVGSRSHKRKLSQAQAETMMTFLWANGIAAKRLKAEGYGDKNAISDNAIIHGSAQNRRIEIQWFTSEGHHHHHH
protein production: not failed

MKVQITNSRTEEILKVQANNENDEVSKATPGEVEESLRLIGDLKFFLATAPVNWQENQIIRRYYLNSGQGFVSCVFWNNLYYITGTDIVKCCLYRMQKFGREVVQKKKFEEGIFSDLRNLKCGIDATLEQPKSEFLSFLFRNMCLKTQKKQKVFFWFSVAHDKLFADALERDLKRESLNQPSTTKPVNEPALSFSYDSSSDKPLYDQLLQHLDSRRPSSTTKSDNSPPKLESENFKDNELVTVTNQPLLGVGLMDDDAPESPSQINDFIPQKLIIEPNTLELNGLTEETPHDLPKNTAKGRDEEDFPLDYFPVSVEYPTEENAFDPFPPQAFTPAAPSMPISYDNVNERDSMPVNSLLNRYPYQLSVAPTFPVPPSSSRQHFMTNRDFYSSNNNKEKLVSPSDPTSYMKYDEPVMDFDESRPNENCTNAKSHNSGQQTKQHQLYSNNFQQSYPNGMVPGYYPKMPYNPMGGDPLLDQAFYGADDFFFPPEGCDNNMLYPQTATSWNVLPPQAMQPAPTYVGRPYTPNYRSTPGSAMFPYMQSSNSMQWNTAVSPYSSRAPSTTAKNYPPSTFYSQNINQYPRRRTVGMKSSQGNVPTGNKQSVGKSAKISKPLHIKTSAYQKQYKINLETKARPSAGDEDSAHPDKNKEISMPTPDSNTLVVQSEEGGAHSLEVDTNRRSDKNLPDAT
protein production: failed

MGHHHHHHSHVAKVSQREEMVKKCLGELTEVCKSLGKVFGVHYFNIFNTVTLKKLAESLSSDPEVLLQIDGVTEDKL
protein production: failed

MKVTFMNLEERKKLETKSIDELDLIGKKVCVDTCVVIDGRITELIERGKLKDATIIIPEAVVSELEYQANMGREIGYKGIEELRKLIEKASEHNIKVEYYGERPTREEIFLAKSGEIDAMIRKVAKETNSILLTSDWIQYNLAKAQGIEAYFLEAAEEEVELVLD
protein production: not failed

MAENLRDSVVHRDIALLSFCAPVMLERLPSSFVKHIELWLSAAGLGIIFGVGYASGPSGPAFWRLIAVIAVGIGVVHGFIFWAVRRRQRQVRRQSIREIQQMLSDVLKNKLAAINMYLPEDADEEMVKQELDGVRASIEDIADEIENISEESIEGWKEHYSGAVERTTNL
protein production: failed

MNTPLRRVAIAVMVMVVALLANATYVQVIKADNLRADPRNSRVLLDEYSRQRGQISAAGQVLAASVPTDDRYKYLRTYPPNPAAPSSPLANAPVTGFYSMQYGSTGLERSEDPVLNGSDNRLFGRRFFDLVSGRDPRGGNVVTTINPVMQQVAYDQLTAKGYTGSVVAIEPSTGRILTMVSTPSYDPNSLASHDGTETTQAWEALNADPEKPLINRAVSQTYPPGSTFKVVVTAAALAAGTTPDTQLTAAPQITLPGTSTTLENYNGSTCGGAPTASLREAFARSCNTAFVELGVKTGTDAVSDQSSALGIGGQMPGVPFPVADSTIGSIPDDAALGQSSIGQRDVALTPLQNAMIAATVANGGVRMQPQLVSELQGPDLSNLATTNPVSEGQAMSSQVAATLTDLMIGSENNTSGEGKIPGVQIASKTGTAEHGTDPRNTPPHAWYIGFAPAQNPTVAIAVIVEDGGDRALAATGGSVAAPIGRAVIAAGLQGG
protein production: failed

MSNVVVIAVVLIVASLTGHVSAQMDMSPSSGPSGAPDCMANLMNMTGCLSYVTVGEGGGAAKPDKTCCPALAGLVESSPQCLCYLLSGDMAAQLGIKIDKAKALKLPGVCGVITPDPSLCSLFGIPVGAPVAMGDEGASPAYAPGSMSGAESPGGFGSGPSASRGSDAPSSAPYSLFLNLIIFPLAFAFYIFC
protein production: failed

LETERNRYKWLFENAVHGIFQASLQAGMRAANPALARMLGYQDPQEVLFSLADLAGNLFVGGAGELAAIGEQLQNQRSLLGYETQLRRKDGSSIDVLMNLLLKPDQDGLVEGFVADITERKLAQQHLEQLNDQLEQR
protein production: failed

MRVEDVMVTDVDTIDITASLEDVLRNYVENAKGSSVVVKEGVRVGIVTTWDVLEAIAEGDDLAEVKVWEVMERDLVTISPRATIKEAAEKMVKNVVWRLLVEEDDEIIGVISATDILRAKMAKRY
protein production: not failed

MTVEQNVLQQSAAQKHQQTFLNQLREITGINDAQILQQALKDSNGNLELAVAFLTAKNAKTPPQEET
protein production: not failed

MAAGFFQAEMSILSSTLARSYSLPIRKTLMTFDFRIAMQRNPCLRIRRSCVAAFSSTPSHSRNFPIRGLEDVFVGYLFGRKKATEVAHVVWEQVIQKGDTVIDATCGNGNDTLAMLKMVMHDSVGCGGYVYAMDIQKDAIESTSSLLDQAVGSKEKECVKLFNLCHSKMGEIVPENARVRMVAFNLGYLPGGNKSIITLSDTTLSALKAAERILKPGGLISLVVYIGHPGGREELEVVEAFGSGLPVSDWICCKFQMLNRPLAPVLVFMFKREN
protein production: failed

MANHKPEIVITYCTQCQWLLRAAWLAQELLSTFADDLGRVALEPGTGGIFRITCNGVQIWERKADGGFPEAKVLKQRVRDQVDPQRDLGHNDR
protein production: not failed

MPHLRFRAVEAHIVESLVPTLLNELSSLLSTARNAFTFELINTQYFAEGGVYPMVEVLWFGREQQTQDQIAQVITDQIRQLLGADSHLAVVFIPLQRTAYYLDGQHF
protein production: not failed

VMEIEARLEDVRQRIADVAEKSGRKAADVALVAVSKTFDAEAIQPVIDAGQRVFGENRVQEAQGKWPALKEKTSDIELHLIGPLQSNKAADAVALFDVVESIDREKIARALSEECARQGRSLRFYVQVNTGLEPQKAGIDPRETVAFVAFCRDELKLPVEGLMCIPPAEENPGPHFALLAKLAGQCGLEKLSMGMSGDFETAVEFGATSVRVGSAIFGSR
protein production: not failed

MKIGIIGAGNIGGTLARKFVAAGHSVKLAGSKSPDSIRELAENIGAEPVAAVEAVKDVEVIVLSIPFAKIPEVAGLFSTVPAEVVVIDTSNYYPQLGTRIPEVDDGELESVWAREQLGRPIIKAFNAIIAKTLADGGKPAGTDNRIAIPVAGDSLAGKAIAQQLLDDAGFDALDAGTIADSWRQQPGMPAYCTELPLAALHSALNVAVKGDAPHLRDALMAEFFGGDIPPSHETIVARNRAVSA
protein production: failed

MTELMGQILGDRYELLRELGSHPGRRTYLALDRWHYEQVVLKLLLFGGGITWDDFKLFEREVAVLQTLDHPAIPRYLDYFEINTPDLKGFALVQTYIEAKSLALWQAEGRVFSEGDLRLLADRLLDILIYLHSRQPPVIHRDIKPTNILLGDRSGHDLGKVYLVDFGAVQTAIAGSTRTVVGTYGYMPPEQFGGKTLPASDLYALGMTLIYLATATPPDELPQKELRVQFQPLVSLSPPFIRWLEKMVAPALEERFDSATAARHALKQLDRSAEDASLITKTPPYGSRLQVRESPQGLLVHIPPVGLNASLFFLIPFAVAWNGFLVVWYSLAIASGFWLMAVFATGHLAVGLGLIGGILYRLLGWQVLMVSPKDLRFYEHILGFRWRHAKVLPLEVIEEIELQPRGTCRHQEDDRQQLWSKLVIRAGSQEIELTENAPRVTSRDLEWLAYTLGRYLGRRVTQARQDCRST
protein production: failed

MSEKAKKGFKMPSSYTVLLIIIAIMAVLTWFIPAGAFIEGIYETQPQNPQGIWDVLMAPIRAMLGTHPEEGSLIKETSAAIDVAFFILMVGGFLGIVNKTGALDVGIASIVKKYKGREKMLILVLMPLFALGGTTYGMGEETMAFYPLLVPVMMAVGFDSLTGVAIILLGSQIGCLASTLNPFATGIASATAGVGTGDGIVLRLIFWVTLTALSTWFVYRYADKIQKDPTKSLVYSTRKEDLKHFNVEESSSVESTLSSKQKSVLFLFVLTFILMVLSFIPWTDLGVTIFDDFNTWLTGLPVIGNIVGSSTSALGTWYFPEGAMLFAFMGILIGVIYGLKEDKIISSFMNGAADLLSVALIVAIARGIQVIMNDGMITDTILNWGKEGLSGLSSQVFIVVTYIFYLPMSFLIPSSSGLASATMGIMAPLGEFVNVRPSLIITAYQSASGVLNLIAPTSGIVMGALALGRINIGTWWKFMGKLVVAIIVVTIALLLLGTFLPFL
protein production: failed

MKNLTSIRPNTSRPARLAALKQSFQDWNNTSDVMARLARRLSTTLSLEAQLSILAEEMTDMVPFDSLNYRHRIARQDFIFSTGMGGPHRCEYRLSLEGHQYGTLTLHRRQRFSEEELTGIEMMLSGAICHIRNACQFIAIEQTALTDSLTGIGNKRALDEALQRASAMADRHGAPWSLILCDLDHFKLINDNHGHVVGDHILARTAEKLEQALRNSDTVYRFGGEEFAILLPHTNEQEARDVADRIRGAIESIRVDGGETPLTVTASCGVAMHLTDEQPEQWLARADEALYRAKAAGRNCTRVFASIS
protein production: failed

AQDLYQNLESKVAQKTREVEEQNLRLKTLYDMTSFLHQQRALDETCQGFIRRLMQLTGADAANARLVDPERGKLDQIAQQGLPAEMALNEECIPDDACHCGEAVQQPFAVLRHIGELEGEEIRHCRKAGFASIAVFHIRNQREDVGIFTLYFRQKRVLSMAEQMLIETLGQHLGVAIEN
protein production: failed

MSHNEESPGIGPGAGGQDSTTALIEAINIRSMSLIVLTSIASLYFIEWAQPVLLPLVVAVLISYALDPLVATLDRIHIPRPLGAALVLCTLIAILAAASVPLKQEAMAMLDKIPQAIKELQREDASTSEDEESIMEKAQIAAKQIEETAENREGKPAVQAGVTPVRVVDEPMDVRDYVIRNSPATIVLISQMFSVLLLVFFLLSVGKLYRRKIVRISGPSFRRMRKAARIMNELHHQVRRFLFVMVISALFVGILTWLAFLLLGVEQAALWGVVAGIASGVPYLGPFLVLVGSGVAAFLQFGELNTAVIVALTSLVITSIQGNLLMPWLTSYVSSLNAVAIFIGLLFWGWLWGPVGLIVATPILMIAKSVCDHVVNFRPVGELLGK
protein production: failed

MDIKDLMKKWSEQAENMRMFHMQELKENGSEWKKLLQENLKDCKGKKVLDAGCGTGFLAILLAQDGWEVTAIDSSEAMLEEGKKTAEELGLSDKITFLLKDAHSTDFPEHLFDAVVSRHASWLFTAPETVYKEWKRILKPGGIMLNIDANWLKPIWNTDEFEKFKSYEAELVKQYGEFRDYYHDEQMINILKKFPLAYINRPEWDEKMLKKIDFKEIASRLLSKEKYMDAFQAARYKTIPMFVIKAKNIE
protein production: failed
